# Measurements published in article PMC7585439, “UvrD helicase–RNA polymerase interactions are governed by UvrD’s carboxy-terminal Tudor domain” (Communications Biology, 2020).
# T1: UvrD-CTD (Escherichia coli, UniProt P03018 645-720)
# T1 sequence: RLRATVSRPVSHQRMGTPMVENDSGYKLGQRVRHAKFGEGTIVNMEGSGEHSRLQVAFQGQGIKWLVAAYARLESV
# B1: Mfd full-length (1-1148) (enzyme, E. coli, UniProt P30958 1-1148, looked up)
# chain: MPEQYRYTLPVKAGEQRLLGELTGAACATLVAEIAERHAGPVVLIAPDMQNALRLHDEISQFTDQMVMNLADWETLPYDSFSPHQDIISSRLSTLYQLPTMQRGVLIVPVNTLMQRVCPHSFLHGHALVMKKGQRLSRDALRTQLDSAGYRHVDQVMEHGEYATRGALLDLFPMGSELPYRLDFFDDEIDSLRVFDVDSQRTLEEVEAINLLPAHEFPTDKAAIELFRSQWRDTFEVKRDPEHIYQQVSKGTLPAGIEYWQPLFFSEPLPPLFSYFPANTLLVNTGDLETSAERFQADTLARFENRGVDPMRPLLPPQSLWLRVDELFSELKNWPRVQLKTEHLPTKAANANLGFQKLPDLAVQAQQKAPLDALRKFLETFDGPVVFSVESEGRREALGELLARIKIAPQRIMRLDEASDRGRYLMIGAAEHGFVDTVRNLALICESDLLGERVARRRQDSRRTINPDTLIRNLAELHIGQPVVHLEHGVGRYAGMTTLEAGGITGEYLMLTYANDAKLYVPVSSLHLISRYAGGAEENAPLHKLGGDAWSRARQKAAEKVRDVAAELLDIYAQRAAKEGFAFKHDREQYQLFCDSFPFETTPDQAQAINAVLSDMCQPLAMDRLVCGDVGFGKTEVAMRAAFLAVDNHKQVAVLVPTTLLAQQHYDNFRDRFANWPVRIEMISRFRSAKEQTQILAEVAEGKIDILIGTHKLLQSDVKFKDLGLLIVDEEHRFGVRHKERIKAMRANVDILTLTATPIPRTLNMAMSGMRDLSIIATPPARRLAVKTFVREYDSMVVREAILREILRGGQVYYLYNDVENIQKAAERLAELVPEARIAIGHGQMRERELERVMNDFHHQRFNVLVCTTIIETGIDIPTANTIIIERADHFGLAQLHQLRGRVGRSHHQAYAWLLTPHPKAMTTDAQKRLEAIASLEDLGAGFALATHDLEIRGAGELLGEEQSGSMETIGFSLYMELLENAVDALKAGREPSLEDLTSQQTEVELRMPSLLPDDFIPDVNTRLSFYKRIASAKTENELEEIKVELIDRFGLLPDPARTLLDIARLRQQAQKLGIRKLEGNEKGGVIEFAEKNHVNPAWLIGLLQKQPQHYRLDGPTRLKFIQDLSERKTRIEWVRQFMRELEENAIA
# notes: Mfd (Transcription-Repair Coupling Factor, TRCF), E. coli, full-length, residues 1-1148; Construct bought from Genscript; Used [U-2H,15N] labelled in the NMR experiments; also called Transcription-Repair Coupling Factor; TRCF; source: E. coli BL21 Star (λDE3), purified (Ni-NTA, SEC)
# B2: UvrD carboxy-terminal region (UvrD-CTD, residues 645-720) (domain or fragment, E. coli, UniProt P03018 645-720, looked up)
# chain: T1 sequence
# notes: UvrD helicase (Helicase II), E. coli, residues 645-720; The His6 tag is called uncleavable; Used [U-15N] labelled in the NMR experiments; source: E. coli BL21(λDE3) pLysS, purified (Ni-NTA, SEC); not shown: His6, N-terminal, kept
# B3: UvrD helicase, full-length (1-720) (enzyme, E. coli, UniProt P03018 1-720, looked up)
# chain: MDVSYLLDSLNDKQREAVAAPRSNLLVLAGAGSGKTRVLVHRIAWLMSVENCSPYSIMAVTFTNKAAAEMRHRIGQLMGTSQGGMWVGTFHGLAHRLLRAHHMDANLPQDFQILDSEDQLRLLKRLIKAMNLDEKQWPPRQAMWYINSQKDEGLRPHHIQSYGNPVEQTWQKVYQAYQEACDRAGLVDFAELLLRAHELWLNKPHILQHYRERFTNILVDEFQDTNNIQYAWIRLLAGDTGKVMIVGDDDQSIYGWRGAQVENIQRFLNDFPGAETIRLEQNYRSTSNILSAANALIENNNGRLGKKLWTDGADGEPISLYCAFNELDEARFVVNRIKTWQDNGGALAECAILYRSNAQSRVLEEALLQASMPYRIYGGMRFFERQEIKDALSYLRLIANRNDDAAFERVVNTPTRGIGDRTLDVVRQTSRDRQLTLWQACRELLQEKALAGRAASALQRFMELIDALAQETADMPLHVQTDRVIKDSGLRTMYEQEKGEKGQTRIENLEELVTATRQFSYNEEDEDLMPLQAFLSHAALEAGEGQADTWQDAVQLMTLHSAKGLEFPQVFIVGMEEGMFPSQMSLDEGGRLEEERRLAYVGVTRAMQKLTLTYAETRRLYGKEVYHRPSRFIGELPEECVEEVRLRATVSRPVSHQRMGTPMVENDSGYKLGQRVRHAKFGEGTIVNMEGSGEHSRLQVAFQGQGIKWLVAAYARLESV
# notes: UvrD helicase (Helicase II), E. coli, full-length, residues 1-720; The His6 tag is called uncleavable; Used [U-2H,15N] labelled in the NMR experiments; also called UvrD-FL; UvrD full-length; source: E. coli BL21(λDE3) pLysS, purified (Ni-NTA, SEC); not shown: His6, N-terminal, kept
# B4: UvrD-ΔCTD (1-664) (domain or fragment, E. coli, UniProt P03018 1-664, looked up)
# chain: MDVSYLLDSLNDKQREAVAAPRSNLLVLAGAGSGKTRVLVHRIAWLMSVENCSPYSIMAVTFTNKAAAEMRHRIGQLMGTSQGGMWVGTFHGLAHRLLRAHHMDANLPQDFQILDSEDQLRLLKRLIKAMNLDEKQWPPRQAMWYINSQKDEGLRPHHIQSYGNPVEQTWQKVYQAYQEACDRAGLVDFAELLLRAHELWLNKPHILQHYRERFTNILVDEFQDTNNIQYAWIRLLAGDTGKVMIVGDDDQSIYGWRGAQVENIQRFLNDFPGAETIRLEQNYRSTSNILSAANALIENNNGRLGKKLWTDGADGEPISLYCAFNELDEARFVVNRIKTWQDNGGALAECAILYRSNAQSRVLEEALLQASMPYRIYGGMRFFERQEIKDALSYLRLIANRNDDAAFERVVNTPTRGIGDRTLDVVRQTSRDRQLTLWQACRELLQEKALAGRAASALQRFMELIDALAQETADMPLHVQTDRVIKDSGLRTMYEQEKGEKGQTRIENLEELVTATRQFSYNEEDEDLMPLQAFLSHAALEAGEGQADTWQDAVQLMTLHSAKGLEFPQVFIVGMEEGMFPSQMSLDEGGRLEEERRLAYVGVTRAMQKLTLTYAETRRLYGKEVYHRPSRFIGELPEECVEEVRLRATVSRPVSHQRMGTPMV
# notes: UvrD helicase (Helicase II), E. coli, residues 1-664; made by inserting a stop codon; Probably the His6 full-length construct; also called truncated UvrD lacking the CTD; source: E. coli BL21(λDE3) pLysS, purified (Ni-NTA, SEC)
# B5: biotinylated 35mer dsDNA (dsDNA)
# DNA 1: CGAGCACTGCACTCGAGTGCAGTGCTCGTTGTTAT
# DNA 2: B5 DNA 1
# modifications: biotin (position not given)
# B6: 35mer dsDNA (dsDNA)
# DNA 1: B5 DNA 1
# DNA 2: B5 DNA 1
# B7: Mfd RNAP Interaction Domain (Mfd-RID, residues 472-547; Domain 4) (domain or fragment, E. coli, UniProt P30958 472-547, looked up)
# chain: RNLAELHIGQPVVHLEHGVGRYAGMTTLEAGGITGEYLMLTYANDAKLYVPVSSLHLISRYAGGAEENAPLHKLGG
# notes: Mfd (Transcription-Repair Coupling Factor, TRCF), E. coli, residues 472-547, comprising Domain 4; Used [U-15N] labelled in the NMR experiments; source: E. coli BL21 Star (λDE3), purified (Ni-NTA, SenP1 cleavage, second Ni-NTA, SEC); not shown: His6, N-terminal, cleaved; Sumo, N-terminal, cleaved
# Tests used:
# [1] = target: T2, RNA polymerase core enzyme (subunits α2ββ'ω) (E. coli, UniProt P0A7Z4 1-329; P0A8V2 1-1342; P0A8T7 1-1407; P0A800 1-91); experiment: BLI; Octet RED96, 303 K; biotinylated ligand on streptavidin biosensors, analyte in a dose series, 0.1% BSA; association and dissociation 1000 s each; which partner was immobilised is not told; conditions: both partners purified
# T2 construct: RNA polymerase subunit alpha, E. coli; RNA polymerase subunit beta, E. coli; RNA polymerase subunit beta', E. coli; RNA polymerase subunit omega, E. coli; also called RNAP core-enzyme; source: expressed from plasmid pIA900, purified as by Svetlov and Artsimovitch with an added SEC step (Superose6); copies: 2 + 1 + 1 + 1
# T2 sequence (P0A7Z4 whole entry, chain 1 of 4): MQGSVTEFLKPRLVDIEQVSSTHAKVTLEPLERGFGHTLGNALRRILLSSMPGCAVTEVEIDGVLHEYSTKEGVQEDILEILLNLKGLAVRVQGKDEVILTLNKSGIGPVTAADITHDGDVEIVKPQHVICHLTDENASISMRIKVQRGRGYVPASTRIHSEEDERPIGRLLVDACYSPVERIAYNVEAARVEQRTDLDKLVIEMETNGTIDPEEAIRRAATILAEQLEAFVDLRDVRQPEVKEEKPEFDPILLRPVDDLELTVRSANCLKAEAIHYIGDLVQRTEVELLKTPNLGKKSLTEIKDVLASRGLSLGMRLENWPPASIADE
# T2 sequence (P0A8V2 whole entry, chain 2 of 4): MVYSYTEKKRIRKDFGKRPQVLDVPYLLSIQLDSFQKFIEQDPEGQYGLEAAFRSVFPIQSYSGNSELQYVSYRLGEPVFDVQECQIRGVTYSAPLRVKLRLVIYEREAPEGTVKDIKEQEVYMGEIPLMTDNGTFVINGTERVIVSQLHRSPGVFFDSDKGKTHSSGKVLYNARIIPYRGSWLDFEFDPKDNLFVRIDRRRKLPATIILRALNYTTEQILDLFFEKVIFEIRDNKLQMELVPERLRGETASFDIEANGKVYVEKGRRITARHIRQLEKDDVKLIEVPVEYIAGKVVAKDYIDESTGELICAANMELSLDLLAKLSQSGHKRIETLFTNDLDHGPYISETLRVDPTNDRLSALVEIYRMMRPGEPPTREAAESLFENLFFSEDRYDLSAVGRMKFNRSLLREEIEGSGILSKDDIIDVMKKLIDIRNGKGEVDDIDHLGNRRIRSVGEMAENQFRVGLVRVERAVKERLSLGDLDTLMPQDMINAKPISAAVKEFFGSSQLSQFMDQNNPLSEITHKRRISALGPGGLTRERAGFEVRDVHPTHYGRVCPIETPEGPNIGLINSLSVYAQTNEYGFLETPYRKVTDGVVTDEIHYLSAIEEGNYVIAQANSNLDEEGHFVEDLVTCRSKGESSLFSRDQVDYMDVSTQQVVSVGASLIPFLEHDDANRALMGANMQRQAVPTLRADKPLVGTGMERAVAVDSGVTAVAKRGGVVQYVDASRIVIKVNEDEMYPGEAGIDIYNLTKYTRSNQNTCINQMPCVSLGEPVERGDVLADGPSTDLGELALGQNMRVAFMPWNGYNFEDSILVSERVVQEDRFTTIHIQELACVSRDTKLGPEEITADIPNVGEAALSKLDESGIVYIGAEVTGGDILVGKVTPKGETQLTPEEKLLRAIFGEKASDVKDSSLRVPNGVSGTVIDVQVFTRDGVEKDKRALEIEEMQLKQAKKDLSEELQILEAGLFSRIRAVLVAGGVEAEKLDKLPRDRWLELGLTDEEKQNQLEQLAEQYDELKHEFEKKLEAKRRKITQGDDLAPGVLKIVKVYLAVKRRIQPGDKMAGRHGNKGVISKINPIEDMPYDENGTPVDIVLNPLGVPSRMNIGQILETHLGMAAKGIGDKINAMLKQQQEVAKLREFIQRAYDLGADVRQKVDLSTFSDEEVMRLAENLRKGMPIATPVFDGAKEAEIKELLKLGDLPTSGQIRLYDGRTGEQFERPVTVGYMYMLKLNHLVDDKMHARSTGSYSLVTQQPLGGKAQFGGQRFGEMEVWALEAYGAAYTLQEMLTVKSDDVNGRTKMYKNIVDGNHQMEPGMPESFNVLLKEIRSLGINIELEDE
# T2 sequence (P0A8T7 whole entry, chain 3 of 4): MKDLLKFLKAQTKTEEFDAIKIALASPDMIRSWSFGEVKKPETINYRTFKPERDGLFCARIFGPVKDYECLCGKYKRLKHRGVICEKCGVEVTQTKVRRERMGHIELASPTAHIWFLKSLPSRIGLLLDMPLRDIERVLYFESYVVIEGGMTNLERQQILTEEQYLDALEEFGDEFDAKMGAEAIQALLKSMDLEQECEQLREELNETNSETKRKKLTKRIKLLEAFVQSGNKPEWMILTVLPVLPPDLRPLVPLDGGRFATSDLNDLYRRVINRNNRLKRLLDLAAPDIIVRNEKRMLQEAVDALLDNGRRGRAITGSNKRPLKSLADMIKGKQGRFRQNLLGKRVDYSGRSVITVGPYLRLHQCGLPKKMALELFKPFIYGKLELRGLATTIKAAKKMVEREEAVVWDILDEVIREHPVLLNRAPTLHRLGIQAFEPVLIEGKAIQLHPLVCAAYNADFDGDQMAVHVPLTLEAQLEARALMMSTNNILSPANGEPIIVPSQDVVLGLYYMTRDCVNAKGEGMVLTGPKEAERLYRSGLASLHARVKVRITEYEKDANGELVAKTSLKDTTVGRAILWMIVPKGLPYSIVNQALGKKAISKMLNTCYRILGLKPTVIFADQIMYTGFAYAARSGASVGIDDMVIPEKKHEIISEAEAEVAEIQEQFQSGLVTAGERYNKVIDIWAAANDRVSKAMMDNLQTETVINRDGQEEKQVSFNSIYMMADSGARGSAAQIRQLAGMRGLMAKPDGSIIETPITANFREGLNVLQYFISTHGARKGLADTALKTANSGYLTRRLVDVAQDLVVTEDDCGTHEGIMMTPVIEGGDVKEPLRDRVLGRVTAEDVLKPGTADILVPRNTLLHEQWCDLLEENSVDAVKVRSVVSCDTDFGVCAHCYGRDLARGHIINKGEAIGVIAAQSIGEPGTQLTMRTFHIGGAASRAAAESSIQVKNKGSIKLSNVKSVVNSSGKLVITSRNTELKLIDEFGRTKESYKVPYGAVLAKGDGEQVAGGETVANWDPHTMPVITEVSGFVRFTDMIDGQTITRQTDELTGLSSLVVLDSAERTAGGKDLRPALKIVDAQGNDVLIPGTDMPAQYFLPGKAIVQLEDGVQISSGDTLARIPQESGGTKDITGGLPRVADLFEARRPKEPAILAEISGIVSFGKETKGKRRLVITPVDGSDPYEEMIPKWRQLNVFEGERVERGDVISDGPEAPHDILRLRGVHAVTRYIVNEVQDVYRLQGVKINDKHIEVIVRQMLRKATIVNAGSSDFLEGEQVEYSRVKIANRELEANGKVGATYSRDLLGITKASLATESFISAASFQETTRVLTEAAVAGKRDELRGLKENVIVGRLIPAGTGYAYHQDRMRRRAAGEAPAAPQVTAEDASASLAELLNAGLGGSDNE
# T2 sequence (P0A800 whole entry, chain 4 of 4): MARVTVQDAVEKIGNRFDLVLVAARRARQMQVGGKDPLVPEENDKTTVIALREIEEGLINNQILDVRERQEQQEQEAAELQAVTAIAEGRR
# UvrD-CTD [2] = target: T1, UvrD-CTD; experiment: BLI; NMR titrations at 298 K: UvrD-CTD in UvrD NMR buffer (20 mM K-phosphate, 50 mM KCl, 5 mM DTT, pH 6.5, 10% D2O), Mfd-RID in PBS pH 7.4 with 10% D2O; BLI buffer not given in the material; conditions: protein: recombinant, tags: N-terminal His6, uncleavable, label: biotin
# Mfd-RID = Mfd-RID (Escherichia coli, UniProt P30958 472-547); experiment: NMR titration; 2 molar equivalents DNA; NMR titrations at 298 K: UvrD-CTD in UvrD NMR buffer (20 mM K-phosphate, 50 mM KCl, 5 mM DTT, pH 6.5, 10% D2O), Mfd-RID in PBS pH 7.4 with 10% D2O; BLI buffer not given in the material; conditions: protein: recombinant; tags: His6-SUMO removed by SenP1; single strand
# UvrD-CTD [3] = target: T1, UvrD-CTD; experiment: NMR titration; up to 2 molar equivalents DNA; NMR titrations at 298 K: UvrD-CTD in UvrD NMR buffer (20 mM K-phosphate, 50 mM KCl, 5 mM DTT, pH 6.5, 10% D2O), Mfd-RID in PBS pH 7.4 with 10% D2O; BLI buffer not given in the material; conditions: protein: recombinant, tags: N-terminal His6, uncleavable
# [4] = self-complementary 28 bp duplex of 2 identical strands, 3' overhangs 7 nt, snap cooled after dissolving
Binder,Kd [1],further results
B1,310 ± 14 nM,
"GCAGTGCTCGTTTTTTT (ssDNA, biotin (position not given)) [biotinylated 17mer ssDNA]",,Kd (UvrD-CTD [2]; single strand): 3800 ± 470 nM
B2,77 ± 0.3 nM,
GCAGTGCTCGTTTTTTT (ssDNA) [17mer ssDNA],,binding result (Mfd-RID): no binding; binding result (UvrD-CTD [3]; single strand): binds
B3,1000 ± 130 nM,
B4,1900 ± 150 nM,
B5,,Kd (UvrD-CTD [2]; [4]): 1900 ± 170 nM
B6,,binding result (UvrD-CTD [3]; [4]): binds
B7,250 ± 52 nM,
